Data on 1 molecule can be found in patent publication US20240288416A1 (RIJKSUNIVERSITEIT GRONINGEN, published 2024).

The experiment deals with T1, artificial PA28-nanopore.
T1 construct: also called PA-nanopore; PA nanopore
The experiment is described as follows: single-channel electrical recording in a planar lipid bilayer, 1 M NaCl.

B1: 20S proteasome from Thermoplasma acidophilum (enzyme)
chain 1: MQQGQMAYDRAITVFSPDGRLFQVEYAREAVKKGSTALGMKFANGVLLISDKKVRSRLIEQNSIEKIQLIDDYVAAVTSGLVADARVLVDFARISAQQEKVTYGSLVNIENLVKRVADQMQQYTQYGGVRPYGVSLIFAGIDQIGPRLFDCDPAGTINEYKATAIGSGKDAVVSFLEREYKENLPEKEAVTLGIKALKSSLEEGEELKAPEIASITVGNKYRIYDQEEVKKFL
chain 2: TTTVGITLKDAVIMATERRVTMENFIMHKNGKKLFQIDTYTGMTIAGLVGDAQVLVRYMKAELELYRLQRRVNMPIEAVATLLSNMLNQVKYMPYMVQLLVGGIDTAPHVFSIDAAGGSVEDIYASTGSGSPFVYGVLESQYSEKMTVDEGVDLVIRAISAAKQRDSASGGMIDVAVITRKDGYVQLPTDQIESRIRKLGLIL
notes: also called the proteasome; T. acidophilum proteasome
On to B1, for which the binding result was “no binding”.
